Source: paper PMC11360561

Key:
[1] = biological target: Human bufavirus 1 (BuV1) VP2, assembled as virus-like particles (human bufavirus 1); test: cryo-EM structure; purified BuV1 VP2 VLPs co-incubated with 6SLN (or 3SLN) glycan in 10-fold molar excess of the potential binding sites; icosahedral reconstruction, 60-mer model
[2] = biological target: Human bufavirus 1 (BuV1) VP2, assembled as virus-like particles (human bufavirus 1); test: cryo-EM structure; purified BuV1 VP2 VLPs dialyzed to pH 7.4 in universal buffer (20 mM HEPES, 20 mM MES, 20 mM sodium acetate, 150 mM NaCl); icosahedral reconstruction
[3] = biological target: Human bufavirus 1 (BuV1) VP2, assembled as virus-like particles (human bufavirus 1); test: cryo-EM structure; purified BuV1 VP2 VLPs dialyzed to pH 2.6 in 50 mM glycine HCl, 150 mM NaCl; icosahedral reconstruction; full and half (broken) capsids seen in micrographs
[4] = biological target: Human bufavirus 1 (BuV1) VP2, assembled as virus-like particles (human bufavirus 1); test: cryo-EM structure; purified BuV1 VP2 VLPs dialyzed to pH 4.0 in universal buffer (20 mM HEPES, 20 mM MES, 20 mM sodium acetate, 150 mM NaCl); icosahedral reconstruction

Measured: stoichiometry N

Human bufavirus 1 (BuV1) VP2, assembled as virus-like particles (natural protein)
60: all assays above
